Assays:
complement C3b [1] = target: complement C3b (UniProt P01024); test: cell-based or functional assay
complement C3b [2] = target: complement C3b (UniProt P01024); test: competition ELISA: CRIg protein against CRIg-LFH on plate-coated C3b, anti-FLAG detection

| fold increase of IC50 compared to wt CRIg (complement C3b [2]) [fold] | Substance | further results |
| --- | --- | --- |
| – | CRIg (soluble, construct not stated) (from UniProt Q9Y279 20-189) (receptor) | inhibition of C5b-9 deposition through the alternative pathway (LPS-coated plate, C1q deficient serum) (complement C3b [1]): 1.49 µM |
| > 10000 | CRIg mutant A (E85A M86A) (from UniProt Q9Y279 20-399) (receptor) | – |
| 100 | CRIg mutant B (H57A Q59A) (from UniProt Q9Y279 20-399) (receptor) | – |
| – | CRIg-Fc (from UniProt Q9Y279 20-283) (Fc fusion) | inhibition of hemolysis of rabbit erythrocytes in C1q deficient serum (alternative pathway) (complement C3b [1]): 127 nM |

From patent US20080045697A1
